tested on: K4 kissing-loop RNA reporter; assay: apparent KD of K4 kissing-loop reporter; higher = weaker reporter binding; conditions: Eterna round: R107; input ligand: tryptophan 2.4 mM
Experimental: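 RNA-MaP round R107: designed RNA switches with theophylline, tryptophan, arginine or FMN aptamers are transcribed on-chip within common flanks. They are titrated with a labelled K4 kissing-loop RNA reporter in RNA-MaP buffer (100 mM Tris pH 7.5, 80 mM KCl, 4 mM MgCl2), without ligand or with the indicated ligand. Median apparent KD per design.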
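Note: bound reporter read as fluorescence of individual clusters on recovered sequencing chips by microscopy, with normalized cluster intensities fitted with a binding model.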

Sequence | apparent KD of K4 kissing-loop reporter [nM]
AAUAUAUAGUGAAGGAGCGCGAUAAGCAGUGAUGUUGCUUAGUUAUUAGUGUUUAUUUUUACGCAGGUAGGUCGCACUAUAUAUA [JR_ExcArginiB_Sub017] | 114
CGCCAGUGAUGUUGGUGCAGCUACCGGGAAGGAGCGCCCAUAAGGGCAGGUAGGUCGCCCGGGCAGUGAUGUUGCCUCAUGCCGC [Exclusion Arginine A GF 22] | 238
UUAGUCUAGAGAGGAUAUCAGUGAUGUUGAUAUCAAGAUCUGAGAUAGAAUUCUAUCUCAGAUCAAUGAGAAGGCUCUAGACAUU [AK1.2 Exc FMN B] | 143
UGUAUGUGAUUUGAUACCAGACCAGCUGGUGGUACCUGAGUGAUGUUCGGGAUGGUCUGGGUCCCUUGGCAGCAAAUCGCAUACU [KL-SSTheoB21] | 212
UUUCGGUUCUGAGGAUAUUCGGACAAAUAUAGUGAUGUUGUAUAAGGAGGAGGGUGUUGGCAGUGCGGAGAAGGCAGACCAGGAU [ExFMNB.W] | 546
UACUAUAGUGAUGUUAUAGAUAAACCAGAUACCAGUGUAACAUAACACCCUUGGCAGCUGAUGAGGGAACUAUUGAAAACAAUAG [AstroSTH-A#7newdesignED4.86] | 217
GUGCAAAGCACCGGCACGAGCAGCUUAAAGGAGGAUAUGACGAAAGUCAGAAGGUUUAGUGAUGUUAGGCCUUGCUUGAGUCGAA [#01 K4 FMN A Exclusion] | 270
GCUAUGGUAGGAAGGAGCGCUUAUUUAUUUUUAAGAGUGAUGUUCGUUAGUAGAUAUUUAAAGCAGGUAGGUCGCCUACUAUAGC [Arginine B K4 14] | 52
UGUCAUUGGUCUGAUACCAGUUAGACCGAUAGGUCAAAACUGGAGUGAUGUUCCUAAAAUAACCCUUGGCAGCAGACCGAUGACU [TheoBS 2 #SwitchBubble #StaticStem] | 954
AAGUCAUAUAGAAGGAGCGUGUUUUUUAAUUUGUUUUCAUGAUCGAGUGAUGUUCGAUAUACACAGGUAGGUCGCUGUAUAAUAA [hbob_SS_Arginine_B_2t142] | 106
ACGGGUCGACGAAGGAGCGCCGUGCAGUGAUGUUGCAGUUAGAUCCAGUGAUGUUUGGGCCGGCAGGUAGGUCGCGUCGACUCAU [Exclusion Arginine B GF 21] | 243
UUUGGAGUGGGAGGAUAUCCUAAUAUGGGUGAUGUUAGCGAUGUUGAAAGUGUAGUGAUGUUGUGCGGAGAAGGUCCAGUGUAGA [BDazzled - #14 - Exc. FMN B] | 240
GGUAGCAUGGCGGCCGCCACUCUAUGCGAGUGAUGUUCGCAGCUCAAAGAGCACCCGGGAACAGAGAGGACCGGGCCAUGCUACC | 213
UGACUGGACUGAAGGAGCGCGCGAGACAAAGUCUCGAACUGCUAGUGAUGUUAGCGAAUAACGCAGGUAGGUCGCAGUCUAGUCU [ArgBS 14 #SwitchBubble #StaticStem] | 156
UGCAGUGAUGUUGCUAUUUUUCUUGAUUAACGAGGACCGGUACGGCCGCCACUCGAUUUCUCUCUAAUCCAGUAUGUUGUUUGAU [whbob_EX_Tryp_A_t4] | 81.1
ACAUGACGUGCGCCCGUCAUGAAACGUGCAAAGGAUAUUCCGUUUUGAAGAAGGUUGCGGUAGUGUAGUGAUGUUGCUCCGCCGU [theeternabot_sameState_KL_FMN_A_11] | 347
AAGCAGUCACUCGACGCCAUCGAAGAUGGGCGAGGACCGGUACGGCCGCCACUCGGAGUGAUGUUCCGAAGACUGCAAAAUAAAA [MatMod 6 - Jieux - Exclusion - Tryptophan A] | 480
AAUGUACAGGGAAGGAGCGUAGUCCAGUGAUGUUGGAGUUAAAUACCAGUGAUGUUGGUUAUACAGGUAGGUCGCCCUAAAGUGC [Exclusion Arginine B Gf 4] | 76
CUCGAGUGAUGUUCGAUUAUUUAUACAGAUACCAGUGAAUUUUAACACCCUUGGCAGCUGGUUGUAUCAUUUUUUUUUACUAAAG [JR_ExcTheophyA_Sub008] | 133
UGUACCGAGUGAGGAUAUGUCGUCGAAAGACGAAAUGGAGUGAUGUUCCUUAAACUGCGAAAGCAGACAGAAGGCACUUGGUACU [FmnBS 29 G11+C75] | 168
UGAUACCAGACUGAUACCAGCUAGUGAUGUUAGCUGAAAUCAGGGUCAAAGACCCUGUCUAGCCCUUGGCAGCAGUCUGGUAUCU [TheoBX 9 #SwitchBubble #StaticStem] | 91.5
GAAAGAAAGAAUGAUACCAGACACCCGAGUGAUGUUCGGAGCAGAGUGAUGUUCUUUUAAGUCCCUUGGCAGCAUAAAAGAAAAG [whbob_SS_Theo_B_sa82] | 119
UGACUACAAGGAAAAUAAUCCUAGUGAUGUUAGGAUAUGCUGAUAAGCAGAAGGAACUGAGAUCGAAAGAUCUCAAAUGUAGUCU [FmnAX 27 Mat Inspired #SwitchBubble #StaticStem #K4Early] | 93.5
AACCUACGAUCACAAUAGUGAUUGUAGGACUAGGAUAUGCUGAAAAGCAGAAGGAGUGAUGUUCCGUCAUGAAUAACAUGACAAA [FmnAX 3 #OpenEnded #K4Late #CoaxialStacking] | 357
GGUAGCAUGGCGGCCGCCACUUAGACUGGAUCGGAAACGAUCCAGUGAAAACGAGUGAUGUUCGUAAGGACCGGGCCAUGCUACC | 173
AAAUUUAUAUUAGAUACCAGCAUUUUGAAUGUUUAUUAUGACAAGAGUGAUGUUCUUGUAUGCCCUUGGCAGCUGGUAUGGGUUU [KL-XTheo-B24] | 125
GGUAGCAUGGCGGCCGCCACUACCUAGUGAUGUUAGGCUGUGGACAUAGGAGCAAAAUAAAUAUGUAGGACCGGGCCAUGCUACC | 123
